Assay results reported in patent US20250179196A1 (Janssen / Centocor, published 2025).
Residue numbers refer to the chain shown, from its start.

Assays:
[1] = molecular target: T1, human IL-23R expressed on the cell surface of stably transfected iLite and HEK cell lines (human, UniProt Q5VWK5 24-629); assay: flow cytometry on human IL-23R HEK cells, Expt E (11-point, 384well)
T1 construct: whole, on cells; Same receptor on two transfected cell lines; the cell line is named under assay; also called human IL-23R iLite cells; human IL-23R HEK cells
T1 sequence (looked up): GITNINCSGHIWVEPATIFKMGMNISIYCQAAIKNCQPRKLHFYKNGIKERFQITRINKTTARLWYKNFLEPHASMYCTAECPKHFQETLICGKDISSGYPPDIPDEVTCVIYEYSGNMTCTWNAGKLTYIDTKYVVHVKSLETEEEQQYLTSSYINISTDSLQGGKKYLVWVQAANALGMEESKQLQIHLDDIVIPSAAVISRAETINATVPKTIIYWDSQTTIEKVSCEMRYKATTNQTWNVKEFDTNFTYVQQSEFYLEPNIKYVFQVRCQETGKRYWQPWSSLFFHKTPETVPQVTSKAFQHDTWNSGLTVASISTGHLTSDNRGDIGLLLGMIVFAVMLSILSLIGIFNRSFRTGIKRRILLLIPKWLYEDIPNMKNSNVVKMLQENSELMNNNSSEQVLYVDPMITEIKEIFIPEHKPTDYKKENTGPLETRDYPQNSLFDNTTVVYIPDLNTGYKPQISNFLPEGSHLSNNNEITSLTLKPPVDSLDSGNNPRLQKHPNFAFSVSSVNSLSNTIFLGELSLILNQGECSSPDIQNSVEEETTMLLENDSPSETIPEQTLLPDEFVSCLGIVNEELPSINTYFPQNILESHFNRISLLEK
Method: HEK-IL-23R cell concentration response mAb binding (11-point, 384-well assay). […] IL-23R mAbs were allowed to bind to cells for 30 minutes, at 37° C. […] Cells were next washed twice in ice-cold stain buffer, then resuspended in a final volume of 10 μL with Sytox Green viability dye (ThermoFisher, Cat #S7020). Plates were kept on ice until run for analysis on the iQue. All washes were performed by centrifugation (800 rcf, 3 minutes) followed by automated aspiration to remove supernatants with plate washers. Cell-binding to HEK-IL-23R cells was measured with FlowJo, by gating for single, viable cells and determining the geometric mean fluorescence intensity (MFI) for the 647 detection antibody. Geometric mean fluorescence intensities were plotted over log mAb concentrations fitted with a dose response curve with variable slope using GraphPad Prism.

[2] = molecular target: T1, human IL-23R expressed on the cell …; assay: flow cytometry on human IL-23R HEK cells, Expt D (8-point, 96well)
Method: HEK-IL-23R cell concentration response mAb binding (8-point, 96-well assay). […] HEK-IL-23R and HEK-parental cells (12.5 μL of each, 120000 cells total) were plated in 2× replicate on 96-well V-bottom plates (Corning, Cat #3357) into 37° C. warmed Assay medium containing serially diluted IL-23R mAbs to a final volume of 150 μL. IL-23R mAbs were allowed to bind to cells for 30 minutes, at 37° C. […] Cells were next washed twice in ice-cold stain buffer, then resuspended in a final volume of 30 μL with Sytox Green viability dye (ThermoFisher, Cat #S7020). Plates were kept on ice until run for analysis on the iQue. All washes were performed by centrifugation (800 rcf, 3 minutes) followed by flick decantation to remove supernatants. Cell-binding to HEK-IL-23R cells was measured with FlowJo, by gating for single, viable cells and determining the geometric mean fluorescence intensity (MFI) for the 647 detection antibody. Geometric mean fluorescence intensities were plotted over log mAb concentrations fitted with a dose response curve with variable slope using GraphPad Prism.

B1: I23RB102 (antibody, mouse IgG2a, kappa, V domains shown)
VH: QVQLQQPGAELVKPGASVKVSCKASGYTFTKYWINWMNQRPGQGLEWIGNIYPGSISTNYNEKFKSKVTLTVDISSSTAYMQLSSLTSDDSAVYYCARGDFYALDYWGQGTTLTVSS
VL: DIQMTQSPASLSVSVGETVTITCRASENIYSHITWYQLKQGKSPQLLVYASTNLADDVPSRFSGSGSGTQYSLKINSLLSEDFGTYYCQHFWGTPWTFGGGTKLEMKR
notes: immunization; mouse IgG2a/kappa
- EC50 [1]: 8.6 nM
- MFI (6.4 nM) [1]: 258000 MFI

B2: I23RB267 (antibody, mouse IgG2a, kappa, V domains shown)
VH: EVQLVQSGAEVKKPGESLKISCKGSGYSFTSYWIGWVRQMPGKGLEWMGIIYPGDSDTRYSPSFQGQVTISADKSISTAYLQWSSLKASDTAMYYCARVWYSSWDLDYWGQGTLVTVSS
VL: not shown
notes: phage display; human V, mouse IgG2a/kappa
- EC50 [2]: 9.4 nM

B3: I23RB321 (antibody, mouse IgG2a, kappa, V domains shown)
VH: QVQLVQSGAEVKKPGSSVKVSCKASGGTFSSYGISWVRQAPGQGLEWMGWISAIFGTTNYAQKFQGRVTITADESTSTAYMELSSLRSEDTAVYYCARHWLQSFDYWGQGTLVTVSS
VL: DIQMTQSPSSLSASVGDRVTITCRASQSIGGDLNWYQQKPGKAPKLLIYAASSLQSGVPSRFSGSGSGTDFTLTISSLQPEDFATYYCQQSYSTPLTFGQGTKVEIKR
notes: as for B2
- EC50 [2]: 18.6 nM

B4: I23RB264 (antibody, mouse IgG2a, kappa, V domains shown)
VH: B3 VH with G33A, W50G, S52I, A53P, T58A, H99R, W100S, L101S, Q102P, S103G
VL: B3 VL with G30D, G31N, A50N, S91P, T94I
notes: as for B2
- EC50 [2]: > 50 nM

B5: I23RB319 (antibody, mouse IgG2a, kappa, V domains shown)
VH: B3 VH with V93L, H99P, W100L, L101K, S103A
VL: B3 VL with G30T, G31D
notes: as for B2
- EC50 [2]: 8.7 nM

B6: I23RB313 (antibody, mouse IgG2a, kappa, V domains shown)
VH: B3 VH with H99G, W100T, L101V, Q102P, S103G
VL: B3 VL with G31E
notes: as for B2
- EC50 [2]: > 50 nM

B7: I23RB261 (antibody, mouse IgG2a, kappa, V domains shown)
VH: B3 VH with G33A, A53P, I54Y, T58A, H99M, W100Y, L101R, S103G
VL: B3 VL with G30N, G31D
notes: as for B2
- EC50 [2]: 9.2 nM

B8: I23RB54 (antibody, mouse IgG2a, kappa, V domains shown)
VH: EVQLQQSGGGLVKPGGSLKLSCAASGFTFSSYAMSWVRQTPEKRLEWVAGISSGGSYIYYPDNVKGRFTISRDNARNTLYLQMSSLRSEDTAMYYCARKKSDYGAMDYWGQGTTLTVSS
VL: DIQMTQSPKFLLVSAGDRVTITCKASQSVSNDVAWYQQKPGQSPRLLIYYASNRYTGVPDRFTGSGYGTDFTFTISTVQAEDLAVYFCQQDYSSLPTFGAGTKLEMKR
notes: as for B1
- EC50 [1]: 35.2 nM
- MFI (6.4 nM) [1]: 63100 MFI

B9: I23RB260 (antibody, mouse IgG2a, kappa, V domains shown)
VH: QVQLVQSGAEVKKPGSSVKVSCKASGGTFSSYGISWVRQAPGQGLEWMGGIIPIFGTANYAQKFQGRVTITADESTSTAYMELSSLRSEDTAVYYCARDFGWSLWFDYWGQGTLVTVSS
VL: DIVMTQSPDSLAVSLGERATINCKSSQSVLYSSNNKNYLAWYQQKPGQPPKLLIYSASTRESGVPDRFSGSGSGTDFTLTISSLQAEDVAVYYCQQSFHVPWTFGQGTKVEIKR
notes: as for B2
- EC50 [2]: > 50 nM

B10: I23RB87 (antibody, mouse IgG2a, kappa, V domains shown)
VH: EFQLQQSGPELVKPGTSVKMSCKASGYTFTNYVMHWVKQKPGQGLEWIGYINPYDASPKYNEKFKGKAILTSDKSSSTAYMELSSLTSEDSAVYYCTRDAKLDYFDYWGQGTTLTVSS
VL: DIVMTQTTSSLSASLGDRVTISCRASQDISNYLNWYQQKPDGTVKLLIYYTSRLHSGVPSRFSGSGSGTDFSLTISNLEQEDIATYFCQQGITLPWTFGAGTKLELKR
notes: as for B1
- EC50 [1]: > 50 nM
- MFI (6.4 nM) [1]: 86100 MFI

B11: I23RB91 (antibody, mouse IgG2a, kappa, V domains shown)
VH: EFQLQQFGPELLKPGASVKISCKASGYTFTDYIMHWVKQSHGKSLEWIGGISPNYGGTGYNGKFKDKATLTVDKSSSTAYMELRSLTSEDSAVYYCARFNNYYYFDYWGQGTTLTVSS
VL: DIKMTQSPSSMYASLGERVTITCKASQDINSYLSWCQQKPGKSPKALIYRANSLVDGVPSRFSGSGSGQDYSLTISSLEYEDMGIYYCLQYDEFPYTFGGGTKLEMKR
notes: as for B1
- EC50 [2]: 30.3 nM

B12: I23RB177 (antibody, mouse IgG2a, kappa, V domains shown)
VH: EVQLQQSGPELLKPGASVKISCKASGYTITDYTMHWVKQSHGKSLEWIGGINPNYGGTSYNEKFKDKATLTVDKSSSTAYMELRSLTSEDSAVFYCVRGNIYFDYWGQGTTLTVSS
VL: B11 VL with D1N, I2T, K3Q, C36F, S53R, L89Q, Y96R, G100A, M106L
notes: as for B1
- EC50 [2]: > 50 nM

B13: I23RB180 (antibody, mouse IgG2a, kappa, V domains shown)
VH: QVTLKESGPGILQPSQTLSLTCSFSGFSLSTYGMGVGWIRQPSGKGLEWLANIWWNDSKYHNAALKSRLTISKDTSKNQVFLKIASVDTADTATYYCGRIDGYYECVDVWGTGTSVTVSS
VL: DIQMTQSPASLSASVGETVTITCRASVNIHNYLAWYQQKQGKSPQLLVYNAKTLADGVPSRFSGSGSGTQYSLKINSLQPEDFGSYYCQHFWTTPYMYTFGAGTKLELKR
notes: as for B1
- EC50 [2]: 27.6 nM

B14: I23RB69 (antibody, mouse IgG2a, kappa, V domains shown)
VH: EVQLQQSGAELVKPGASVKISCKASGYSFTGYNMNWVKQSHGKSLEWIGNINPFYDKTSYNQKFKGKATLTVDKASSTAYMQLNSLTSEDSAVYYCARQLGLKGFAYWGQGTLVTVSA
VL: DIVMTQSHKFMSTSVGDRVSITCKASQDVSTAVAWYQQKPGQSPKLLIYSASYRYTGVPDRFTGSGSGTDFTFTISSVQAEDLAVYYCQQHYSTPWTFGGGTKLEMKR
notes: as for B1
- EC50 [2]: 0.6 nM

B15: I23RB67 (antibody, mouse IgG2a, kappa, V domains shown)
VH: EVQLQQSGAELVKPGASVKLSCKASGYTFTSYWINWVKQRPGQGLEWIGNIYPGSSSTNYNEKFKSKATLTVDTSSSTAYMQLSSLTSDDSAVYYCARSAYGNRLAMDYWGQGTTLTVSS
VL: B14 VL with I2V, S52F, W96Y, M106L
notes: as for B1
- EC50 [1]: 18 nM
- MFI (6.4 nM) [1]: 80900 MFI

B16: I23RB317 (antibody, mouse IgG2a, kappa, V domains shown)
VH: QVQLVQSGAEVKKPGSSVKVSCKASGGTFSSYAISWVRQAPGQGLEWMGGIIPIFGTANYAQKFQGRVTITADESTSTAYMELSSLRSEDTAVYYCARGNGVNYHSELDYWGQGTLVTVSS
VL: EIVLTQSPATLSLSPGERATLSCRASQSVDSFLAWYQQKPGQAPRLLIYTASNRATGIPARFSGSGSGTDFTLTISSLEPEDFAVYYCQQGNSAPFTFGQGTKVEIKR
notes: as for B2
- EC50 [2]: 31 nM

B17: I23RB161 (antibody, mouse IgG2a, kappa, V domains shown)
VH: EFQLQQSGPELVKPGASVKISCKASVYAFSSSWMNWVKQRPGKGLEWIGRIYPGDGDTNYNGKFKGKATLTADKSSSTAYMQLSSLTSEDSAVYFCARRYDFGSAMDYWGQGTSVTVSS
VL: DIVMTQSPAILSASPGEKVTMTCRASSSVSYMHWYQQKPGSSPKPWIYATSDLASGAPARFSGSGSGTSYSLTISRVEAEDAATYYCQQWSSNPPTFGGGTKLEIKR
notes: as for B1
- EC50 [2]: 0.8 nM

B18: I23RB35 (antibody, mouse IgG2a, kappa, V domains shown)
VH: DVQLQESGPGLVKPSQSLSLTCSVTGYSITSGHNWNWIRQFPGNKLEWLGYISYDGSNNYDPSLKNRISITRDTSKNQFFLKLNSVTTEDTATYYCARGGGYFGNSYRVFASWGQGTTVTVSS
VL: DIVLTQSPASLAVSLGQRATISCRASESVDSYGNSFMHWYQQKPGQPPKLLIYRASNLESEIPARFSGRGSGTDFTLTINPVEADDVATYYCQQSNADPYTFGGGTKLEIKR
notes: as for B1
- EC50 [2]: 0.2 nM

B19: I23RB78 (antibody, mouse IgG2a, kappa, V domains shown)
VH: EFQLQQSGGGLVKPGGSLKLSCAASGFTFSNYTMSWVRQTPEKRLKWVACISSGGGNTYYPDSVKGRFTISRDNARNTLYLQMSSLRSEDTAMYYCARRNYRRAMDYWGQGTSVTVSS
VL: B18 VL with L4M, N34I, E61G, R69S, G72R, A97E, Y100W, G104A, K107G
notes: as for B1
- EC50 [1]: 15.8 nM
- MFI (6.4 nM) [1]: 84200 MFI
